Assays:
[1] = target: T1, VapB26 antitoxin (ITC/EMSA) (Mycobacterium tuberculosis, UniProt O53778 1-71); experiment: EMSA
[2] = target: T1, VapB26 antitoxin (ITC/EMSA); experiment: ITC
[3] = target: His6-VapB26 antitoxin (NMR) (Mycobacterium tuberculosis, UniProt O53778 1-71); experiment: NMR
[4] = target: T1, VapB26 antitoxin (ITC/EMSA); experiment: ITC; remark: listed apart in the source

T1 sequence (O53778 whole entry): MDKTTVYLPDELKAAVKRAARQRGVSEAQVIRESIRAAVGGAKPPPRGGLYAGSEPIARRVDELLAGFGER
Sequence of His6-VapB26 antitoxin (NMR) (O53778 whole entry): as above

B1: palindromic DNA 'a' (dsDNA)
DNA 1: TATTTTAATAACTTAAAAGT
DNA 2: ACTTTTAAGTTATTAAAATA
binding result [1]: no binding

B2: vapBC26 promoter DNA (19 bp) (dsDNA)
DNA 1: TTCGCGGCTACGCCGACAA
DNA 2: TTGTCGGCGTAGCCGCGAA
Kd [2]: 4.69 ± 0.81 µM

B3: control DNA 'X' (dsDNA)
DNA 1: GATTTTTTTTGATTTTTTT
DNA 2: AAAAAAATCAAAAAAAATC
binding result [3]: no binding
binding result [4]: no binding

B4: palindromic DNA 'b' (dsDNA)
DNA 1: TAATAGAATAATAAGTATCACTCCTTTA
DNA 2: TAAAGGAGTGATACTTATTATTCTATTA
binding result [1]: no binding

From article PMC5737657
